From patent publication US20210388041A1 (NEXEL, published 2021)

Experiments:
[1] = molecular target: T1, integrin β3 (integrin αvβ3) (human, UniProt P05106 27-788; P06756 31-1048); test: proximity ligation assay in human HSCs
T1 construct: whole, on cells; The assays detect the β3 chain with an antibody; The legend speaks of integrin αvβ3 on HSCs; also called Integrin B3; integrin β3/β5
Experimental: (§1) For the PLA incorporation assay, human HSCs were seeded at 2×10⁴ cells per well on the 18 mm circular cover glass in 12-well plates and cultured for 24 hours. After serum starvation for 24 hours, the cells were treated with 10 ng/ml of TGF-β1 and/or 500 ng/ml of NP-011, and then, further incubated for 30 minutes. The PLA incorporation was accessed using the Duolink In Situ Red Starter Kit (Merck) according to the manufacturer's instructions. Digital images of PLA-positive cells were captured using a microscope (Nikon) and analyzed using ImageJ software <https://imagej.nih.gov/iy>.
(§2) It was investigated herein the mechanism of action for NP-011's rapid and effective suppression TGF-β signaling observed in diseased liver (FIGS. 1E and 2F). One day after administration of NP-011 in TAA-induced fibrotic liver, NP-011 preferentially bound to α-SMA-positive HSCs, and some of NP-011 interacted with macrophages in the liver (FIG. 6). Integrin αvβ3 and αvβ5 on the surface of HSCs have been previously implicated in regulating fibrosis. Additionally, the crosstalk between integrin and TGF-β signaling may be important in the regulation of pathological epithelial to mesenchymal transition (EMT) and myofibroblast differentiation. […] As a consequences of NP-011 treatment in TGF-β1-treated HSCs, the proliferative HSCs returned to quiescent status (FIG. 7D). […]

[2] = molecular target: T2, integrin β5 (integrin αvβ5) (human, UniProt P18084 24-799; P06756 31-1048); test: proximity ligation assay in human HSCs
T2 construct: whole, on cells; The assays detect the β5 chain with an antibody; The legend speaks of integrin αvβ5 on HSCs; also called Integrin B5; integrin β3/β5
T2 sequence (P18084 24-799, chain 1 of 2): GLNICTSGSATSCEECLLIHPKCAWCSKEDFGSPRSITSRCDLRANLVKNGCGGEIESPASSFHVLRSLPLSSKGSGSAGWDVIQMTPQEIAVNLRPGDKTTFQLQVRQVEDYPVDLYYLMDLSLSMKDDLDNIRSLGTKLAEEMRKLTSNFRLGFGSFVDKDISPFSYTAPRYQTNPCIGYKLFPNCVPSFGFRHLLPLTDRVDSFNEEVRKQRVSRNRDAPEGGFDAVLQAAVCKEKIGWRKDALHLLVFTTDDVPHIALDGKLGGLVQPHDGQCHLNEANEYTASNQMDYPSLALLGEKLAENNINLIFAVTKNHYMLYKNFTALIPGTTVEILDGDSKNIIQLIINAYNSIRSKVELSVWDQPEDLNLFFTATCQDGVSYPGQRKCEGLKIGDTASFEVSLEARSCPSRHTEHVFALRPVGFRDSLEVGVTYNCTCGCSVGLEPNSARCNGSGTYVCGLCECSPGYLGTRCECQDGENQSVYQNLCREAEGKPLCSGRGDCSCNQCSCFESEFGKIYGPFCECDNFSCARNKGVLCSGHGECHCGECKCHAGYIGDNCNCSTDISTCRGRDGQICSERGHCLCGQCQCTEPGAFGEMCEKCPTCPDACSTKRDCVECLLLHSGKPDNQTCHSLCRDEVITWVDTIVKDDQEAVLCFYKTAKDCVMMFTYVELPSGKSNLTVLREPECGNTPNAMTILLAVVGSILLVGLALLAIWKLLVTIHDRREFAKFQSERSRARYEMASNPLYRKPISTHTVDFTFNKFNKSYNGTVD
T2 sequence (P06756 31-1048, chain 2 of 2): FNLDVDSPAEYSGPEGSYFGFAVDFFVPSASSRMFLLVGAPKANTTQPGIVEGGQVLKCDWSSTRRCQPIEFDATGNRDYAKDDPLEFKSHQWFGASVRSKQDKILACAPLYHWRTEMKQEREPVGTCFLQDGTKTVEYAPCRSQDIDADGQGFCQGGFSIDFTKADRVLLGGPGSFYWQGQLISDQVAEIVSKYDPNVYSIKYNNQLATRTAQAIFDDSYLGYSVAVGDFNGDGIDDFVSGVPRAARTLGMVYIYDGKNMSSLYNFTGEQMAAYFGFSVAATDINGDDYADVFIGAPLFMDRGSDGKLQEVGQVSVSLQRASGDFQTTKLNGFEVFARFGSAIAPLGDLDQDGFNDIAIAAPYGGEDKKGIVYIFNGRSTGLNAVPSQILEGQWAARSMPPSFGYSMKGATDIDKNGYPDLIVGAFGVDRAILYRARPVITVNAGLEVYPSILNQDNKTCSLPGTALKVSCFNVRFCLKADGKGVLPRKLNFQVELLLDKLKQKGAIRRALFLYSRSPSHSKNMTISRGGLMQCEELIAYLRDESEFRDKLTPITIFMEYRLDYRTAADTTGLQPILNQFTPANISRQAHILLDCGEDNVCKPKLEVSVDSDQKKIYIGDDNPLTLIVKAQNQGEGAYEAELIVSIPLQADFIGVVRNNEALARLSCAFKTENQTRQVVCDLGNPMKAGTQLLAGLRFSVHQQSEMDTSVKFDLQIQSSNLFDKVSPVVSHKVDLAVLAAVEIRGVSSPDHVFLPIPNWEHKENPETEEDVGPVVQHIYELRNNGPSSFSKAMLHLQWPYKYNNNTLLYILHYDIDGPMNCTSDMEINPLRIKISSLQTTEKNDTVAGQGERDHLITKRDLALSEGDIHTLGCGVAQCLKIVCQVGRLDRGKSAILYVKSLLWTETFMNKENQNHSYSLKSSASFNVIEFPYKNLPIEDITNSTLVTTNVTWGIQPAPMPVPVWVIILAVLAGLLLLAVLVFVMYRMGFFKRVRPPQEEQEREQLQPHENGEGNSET
Experimental: as §1, §2

T1 sequence (P05106 27-788, chain 1 of 2): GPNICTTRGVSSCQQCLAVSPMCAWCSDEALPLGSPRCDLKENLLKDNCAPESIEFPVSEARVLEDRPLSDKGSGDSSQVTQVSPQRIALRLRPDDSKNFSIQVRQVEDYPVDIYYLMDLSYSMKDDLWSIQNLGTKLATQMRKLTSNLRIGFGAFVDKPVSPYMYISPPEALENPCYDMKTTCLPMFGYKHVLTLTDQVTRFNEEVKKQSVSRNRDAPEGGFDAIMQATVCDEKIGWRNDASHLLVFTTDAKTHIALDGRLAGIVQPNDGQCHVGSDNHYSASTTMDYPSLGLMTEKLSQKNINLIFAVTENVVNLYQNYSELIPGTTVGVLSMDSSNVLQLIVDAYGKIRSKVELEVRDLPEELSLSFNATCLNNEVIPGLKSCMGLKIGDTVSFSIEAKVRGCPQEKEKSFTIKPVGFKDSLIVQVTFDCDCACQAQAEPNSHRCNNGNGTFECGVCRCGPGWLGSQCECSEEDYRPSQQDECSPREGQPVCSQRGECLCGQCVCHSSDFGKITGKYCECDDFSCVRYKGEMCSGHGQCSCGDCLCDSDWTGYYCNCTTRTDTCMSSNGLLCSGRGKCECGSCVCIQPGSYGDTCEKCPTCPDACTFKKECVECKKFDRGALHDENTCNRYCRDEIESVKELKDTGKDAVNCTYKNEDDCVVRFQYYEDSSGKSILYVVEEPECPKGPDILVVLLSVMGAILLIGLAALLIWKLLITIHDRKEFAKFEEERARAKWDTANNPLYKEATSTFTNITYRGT
T1 sequence (P06756 31-1048, chain 2 of 2): as the sequence (P06756 31-1048, chain 2 of 2) above

binding result [1]: binds
binding result [2]: binds
B1: TGF-β receptor 1 (TGFBRI) (receptor, human, UniProt P36897 34-503, looked up)
chain: LQCFCHLCTKDNFTCVTDGLCFVSVTETTDKVIHNSMCIAEIDLIPRDRPFVCAPSSKTGSVTTTYCCNQDHCNKIELPTTVKSSPGLGPVELAAVIAGPVCFVCISLMLMVYICHNRTVIHHRVPNEEDPSLDRPFISEGTTLKDLIYDMTTSGSGSGLPLLVQRTIARTIVLQESIGKGRFGEVWRGKWRGEEVAVKIFSSREERSWFREAEIYQTVMLRHENILGFIAADNKDNGTWTQLWLVSDYHEHGSLFDYLNRYTVTVEGMIKLALSTASGLAHLHMEIVGTQGKPAIAHRDLKSKNILVKKNGTCCIADLGLAVRHDSATDTIDIAPNHRVGTKRYMAPEVLDDSINMKHFESFKRADIYAMGLVFWEIARRCSIGGIHEDYQLPYYDLVPSDPSVEEMRKVVCEQKLRPNIPNRWQSCEALRVMAKIMRECWYANGAARLTALRIKKTLSQLSQQEGIKM
notes: whole, on cells; Endogenous protein of human HSCs; Detected in situ by PLA and pulled down from cell lysate with a TGFβRI antibody (Abcam ab31013); also called TGFβRI; TGFBR1
